Measured values as given in article PMC11203631.

Tests used:
Trastuzumab [1] = assay: SPR; Biacore X100; Tz amine-coupled to a CM3 chip at 1220 RU; authentic vault, vault-Z or peptide Z injected 3 min at 30 uL/min, 25 °C, in 10 mM HEPES pH 7.4, 0.15 M NaCl, 3 mM EDTA, 0.05% Surfactant P20; Langmuir 1:1 kinetic fit
Trastuzumab [2] = assay: SPR; same sensorgrams of Z peptide on immobilised Tz, fitted with the affinity model (Req against Z peptide concentration)
[3] = molecular target: vault-Z nanoparticle (assembly of major vault protein carrying a C-terminal Z peptide) (human | staphylococcal (protein A-derived)); assay: co-sedimentation; 8 nM vault-Z (624 nM MVP-Z) or authentic vault incubated 1 h with 40 to 320 nM Tz in 12 mM sodium phosphate pH 7.2, 0.14 M NaCl, 2.7 mM KCl; pelleted at 100,000 x g, 2 h, 4 °C; pellets quantified by SDS-PAGE densitometry and LC/MS; apparent KD from a quadratic binding equation

Substance	Kd (Trastuzumab [1])	koff (Trastuzumab [1])	kon (Trastuzumab [1])	Kd (Trastuzumab [2])	Tz bound per vault-Z at 160 nM Tz (Tz per vault-Z) [3]	stoichiometry N (Tz per vault-Z) [3]
vault-Z nanoparticle (assembly of major vault protein carrying a C-terminal Z peptide) (complex)	2.53 nM	0.000259 s⁻¹	105000 M⁻¹ s⁻¹			
Z peptide in isolation	38.3 nM	0.0171 s⁻¹	446000 M⁻¹ s⁻¹	56 nM		
Trastuzumab (antibody)					14	> 10
